# pKd: −log10 of the molar value.
# Target: GAPDH (purified recombinant, no tag named) (UniProt P04406)
# Test: ELISA
# NleB-FLAG (purified) (enzyme), sequence (Q5XMK8 whole entry): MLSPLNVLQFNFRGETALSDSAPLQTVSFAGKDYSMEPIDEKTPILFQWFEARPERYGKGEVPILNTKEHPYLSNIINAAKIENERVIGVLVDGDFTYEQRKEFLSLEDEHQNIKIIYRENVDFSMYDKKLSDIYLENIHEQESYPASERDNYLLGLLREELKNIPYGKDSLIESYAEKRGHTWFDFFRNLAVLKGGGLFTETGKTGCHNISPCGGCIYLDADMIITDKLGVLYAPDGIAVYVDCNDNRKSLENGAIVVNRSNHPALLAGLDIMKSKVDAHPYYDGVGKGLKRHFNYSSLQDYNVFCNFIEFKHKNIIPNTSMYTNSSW
substance,measurement,value
NleB-FLAG (purified) (enzyme),pKd,4.49
